Where two headings read alike, the source gives them in different places.
Columns and labels:
[1] = target: T1, Gac (C-terminal domain of GyrA, recombinant) (Borrelia burgdorferi B31) (UniProt O51396); experiment: competition
T1 sequence: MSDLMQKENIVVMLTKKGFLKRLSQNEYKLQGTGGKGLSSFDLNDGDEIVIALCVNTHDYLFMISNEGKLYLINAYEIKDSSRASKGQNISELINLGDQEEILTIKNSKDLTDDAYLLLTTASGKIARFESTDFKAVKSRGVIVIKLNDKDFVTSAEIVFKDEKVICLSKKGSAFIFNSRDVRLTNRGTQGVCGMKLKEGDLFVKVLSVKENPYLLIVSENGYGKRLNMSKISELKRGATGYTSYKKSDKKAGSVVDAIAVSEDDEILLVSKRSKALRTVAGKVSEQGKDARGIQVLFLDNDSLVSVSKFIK

[2] = target: T1, Gac (C-terminal domain of GyrA, recombinant) (Borrelia burgdorferi B31); experiment: competition; remark: listed apart in the source

Substance	binding signal (fold reduction of shift) [1]	binding signal (fold reduction of shift) [2]	binding signal (fold change of shift) [1]
B31 ospC operator/promoter unlabeled	2.6	–	–
Ip89 ospC operator/promoter unlabeled	2	> 8	–
empty pCR2.1 amplicon	–	–	< 1.3

Source: publication doi:10.1101/2022.11.09.515855
